Experimental data from patent US20250388702A1 (Dana-Farber, published 2025).

B1: KIR3DL3 mAb 574.2.2D8.6.9 (antibody, IgG2b, V domains shown)
VH: DVQLVESGGGLVQPGGSRKLSCAASGFTFSYFGMHWVRRAPEKGLEWVAFISSDSTTIYYTDTVKGRFTISRDNPKNTLFLQMTSLRSEDTAIYYCARFYDGAMDYWGQGTSVTVST
VL: DIVMTQSQKFMSTSVGDRVSITCKASQSVRTAVAWYQQKPGQSPKVLIYLASNRHTGVPDRFTGSGSGTDFTLTISNVQSEDLADYFCLQHWNYPLTFGAGTKLELK
notes: Mouse hybridoma antibody, IgG2b; also called AVS-3702
B2: KIR3DL3 mAb 574.2.2F11.2.7.4 (antibody, IgG2b, V domains shown)
VH: B1 VH
VL: B1 VL
notes: Parental mouse hybridoma antibody, IgG2b; only variable domains given; also called AVS-3703
B3: KIR3DL3 mAb 574.2.2H1.11.6 (antibody, IgG2b, V domains shown)
VH: B1 VH
VL: B1 VL
notes: Mouse hybridoma antibody, IgG2b; only variable domains given; also called AVS-3704
B4: KIR3DL3 mAb 574.2.1C7.D2.6.5 (antibody, IgG1, V domains shown)
VH: QVQLQQSGAELMKPGASVKISCKATGYTFSNYWIEWIKQRPGHGLEWIGEILPGSGSTNYNEKFKGKATFTAATSSNTAYMQLSSLTSEDSAVYYCARRVPDYYGSRYYFDYWGQGTTLTVSS
VL: NIVMTQSPKSMSMSVGERVTLSCKASENVGIYVSWYQQKPEQSPKLLIYGASNRYTGVPDRFTGSGSATDFTLTISSVQAEDLADYHCGQSYNYPFTFGSGTKLEIK
notes: Mouse hybridoma antibody, IgG1; only variable domains given; also called AVS-3698

target: T1, Human KIR3DL3 (human, UniProt Q8N743 26-410); experiment: cell-based or functional assay
T1 sequence (Q8N743 26-410 H321N limits assumed): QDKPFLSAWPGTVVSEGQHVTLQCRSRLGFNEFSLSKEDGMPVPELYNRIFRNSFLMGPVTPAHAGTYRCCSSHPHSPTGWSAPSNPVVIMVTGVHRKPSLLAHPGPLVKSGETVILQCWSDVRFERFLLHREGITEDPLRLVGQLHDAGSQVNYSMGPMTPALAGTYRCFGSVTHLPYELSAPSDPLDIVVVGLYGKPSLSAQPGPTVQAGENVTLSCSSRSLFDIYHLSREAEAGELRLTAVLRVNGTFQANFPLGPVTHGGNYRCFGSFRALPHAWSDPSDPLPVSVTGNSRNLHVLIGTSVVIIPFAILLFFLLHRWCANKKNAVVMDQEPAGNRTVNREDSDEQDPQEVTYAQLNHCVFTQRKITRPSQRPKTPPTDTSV

Binder	Jurkat IL-2 Luciferase Activation, EC50	Jurkat IL-2 Luciferase, Fold Activation
B1	1.3 µg/mL	14.9 fold
B2	1.25 µg/mL	17.1 fold
B3	1.79 µg/mL	16.2 fold
B4	77 µg/mL	8.2 fold

target: T2, KIR3DL1 (UniProt P43629 22-444, limits assumed); experiment: HEK293 cell microarray
T2 construct: whole, on cells
T2 sequence (P43629 22-444 limits assumed): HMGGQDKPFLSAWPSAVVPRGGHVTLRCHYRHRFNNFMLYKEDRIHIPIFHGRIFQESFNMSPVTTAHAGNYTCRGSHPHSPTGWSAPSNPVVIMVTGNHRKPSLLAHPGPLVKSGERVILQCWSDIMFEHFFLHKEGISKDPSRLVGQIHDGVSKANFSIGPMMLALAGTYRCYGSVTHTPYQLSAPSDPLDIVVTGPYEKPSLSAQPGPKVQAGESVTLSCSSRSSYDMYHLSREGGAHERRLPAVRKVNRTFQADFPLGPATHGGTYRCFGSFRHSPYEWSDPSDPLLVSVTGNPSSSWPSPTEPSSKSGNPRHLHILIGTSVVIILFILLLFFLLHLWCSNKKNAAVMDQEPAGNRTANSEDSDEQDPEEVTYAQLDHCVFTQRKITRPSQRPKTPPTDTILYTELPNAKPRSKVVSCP
Experimental: (§1) Replicate microarray slides expressing a complete KIR family cDNA panel were fixed and blocked with buffer containing PBS/0.5% BSA and incubated for 1 hour at room temperature with individual KIR3DL3 mAb hybridoma supernatants at 1:5, 1:25 and 1:250 dilutions in PBS/0.1% BSA. Cell arrays were washed with PBS and incubated for 1 hour at room temperature in PBS/0.1% BSA containing AF647-conjugated goat anti-mouse IgG (H+L) (Life Technologies, A21235). Slides were washed with PBS, dried, and imaged for ZsGreen1 and AF647 fluorescence.
(§2) In Table 4, replicate microarray slides expressing the KIR family cDNA panel (as in FIG. 1A, FIG. 2B, and FIG. 2C) were fixed and blocked with buffer containing PBS/0.5% BSA and incubated for 1 hour at room temperature with individual KIR3DL3 mAb hybridoma supernatants at 1:5, 1:25 and 1:250 dilutions in PBS/0.1% BSA. Cell arrays were washed with PBS and incubated for 1 hour at room temperature in PBS/0.1% BSA containing AF647-conjugated goat anti-mouse IgG (H+L) (Life Technologies, A21235). Slides were washed with PBS, dried, and imaged for ZsGreen1 and AF647 fluorescence.

Binder	binding result
B1	no binding (tested: supernatant 1:5, 1:25, 1:250)
B2	no binding (tested: supernatant 1:5, 1:25, 1:250)
B3	no binding (tested: supernatant 1:5, 1:25, 1:250)
B4	no binding (tested: supernatant 1:5, 1:25, 1:250)

target: T3, KIR3DL2 (UniProt P43630 22-455, limits assumed); experiment: HEK293 cell microarray
T3 construct: whole, on cells
T3 sequence (P43630 22-455 limits assumed): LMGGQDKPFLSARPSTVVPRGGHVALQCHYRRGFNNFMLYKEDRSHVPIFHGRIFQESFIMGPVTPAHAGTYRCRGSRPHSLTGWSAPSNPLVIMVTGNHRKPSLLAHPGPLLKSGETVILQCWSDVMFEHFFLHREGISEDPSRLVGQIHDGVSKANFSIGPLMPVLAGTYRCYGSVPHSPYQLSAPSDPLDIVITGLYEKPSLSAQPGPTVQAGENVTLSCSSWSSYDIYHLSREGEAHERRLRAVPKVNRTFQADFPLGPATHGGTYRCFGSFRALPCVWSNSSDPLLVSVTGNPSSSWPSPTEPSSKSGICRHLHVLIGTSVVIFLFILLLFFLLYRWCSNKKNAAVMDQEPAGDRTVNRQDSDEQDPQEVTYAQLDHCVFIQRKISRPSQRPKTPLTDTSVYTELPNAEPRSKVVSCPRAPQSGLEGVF
Experimental: as §1, §2

Binder	binding result
B1	no binding (tested: supernatant 1:5, 1:25, 1:250)
B2	no binding (tested: supernatant 1:5, 1:25, 1:250)
B3	no binding (tested: supernatant 1:5, 1:25, 1:250)
B4	no binding (tested: supernatant 1:5, 1:25, 1:250)

target: T4, KIR2DL1 (UniProt P43626 22-348, limits assumed); experiment: HEK293 cell microarray
T4 construct: whole, on cells
T4 sequence (P43626 22-348 limits assumed): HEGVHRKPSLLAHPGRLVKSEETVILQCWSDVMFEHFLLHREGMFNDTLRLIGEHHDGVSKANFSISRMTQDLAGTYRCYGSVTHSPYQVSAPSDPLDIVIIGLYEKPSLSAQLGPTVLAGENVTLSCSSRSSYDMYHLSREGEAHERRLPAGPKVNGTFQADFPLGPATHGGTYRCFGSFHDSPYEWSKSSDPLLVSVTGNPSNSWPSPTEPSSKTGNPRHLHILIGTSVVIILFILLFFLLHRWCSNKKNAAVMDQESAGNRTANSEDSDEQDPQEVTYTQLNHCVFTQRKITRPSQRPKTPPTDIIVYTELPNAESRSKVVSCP
Experimental: as §1, §2

Binder	binding result
B1	no binding (tested: supernatant 1:5, 1:25, 1:250)
B2	no binding (tested: supernatant 1:5, 1:25, 1:250)
B3	no binding (tested: supernatant 1:5, 1:25, 1:250)
B4	no binding (tested: supernatant 1:5, 1:25, 1:250)

target: T5, KIR2DL2 (UniProt P43627 22-348, limits assumed); experiment: HEK293 cell microarray
T5 construct: whole, on cells
T5 sequence (P43627 22-348 limits assumed): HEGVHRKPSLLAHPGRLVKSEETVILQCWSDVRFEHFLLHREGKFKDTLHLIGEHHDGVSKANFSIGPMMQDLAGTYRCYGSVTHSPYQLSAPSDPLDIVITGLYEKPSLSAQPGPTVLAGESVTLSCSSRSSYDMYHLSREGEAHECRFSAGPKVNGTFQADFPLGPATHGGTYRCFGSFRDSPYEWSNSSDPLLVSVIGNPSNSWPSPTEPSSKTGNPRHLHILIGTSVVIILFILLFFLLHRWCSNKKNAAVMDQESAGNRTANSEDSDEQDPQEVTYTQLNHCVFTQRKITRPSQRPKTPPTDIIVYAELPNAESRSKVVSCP
Experimental: as §1, §2

Binder	binding result
B1	no binding (tested: supernatant 1:5, 1:25, 1:250)
B2	no binding (tested: supernatant 1:5, 1:25, 1:250)
B3	no binding (tested: supernatant 1:5, 1:25, 1:250)
B4	no binding (tested: supernatant 1:5, 1:25, 1:250)

target: T6, KIR2DL3 (UniProt P43628 22-341, limits assumed); experiment: HEK293 cell microarray
T6 construct: whole, on cells
T6 sequence (P43628 22-341 limits assumed): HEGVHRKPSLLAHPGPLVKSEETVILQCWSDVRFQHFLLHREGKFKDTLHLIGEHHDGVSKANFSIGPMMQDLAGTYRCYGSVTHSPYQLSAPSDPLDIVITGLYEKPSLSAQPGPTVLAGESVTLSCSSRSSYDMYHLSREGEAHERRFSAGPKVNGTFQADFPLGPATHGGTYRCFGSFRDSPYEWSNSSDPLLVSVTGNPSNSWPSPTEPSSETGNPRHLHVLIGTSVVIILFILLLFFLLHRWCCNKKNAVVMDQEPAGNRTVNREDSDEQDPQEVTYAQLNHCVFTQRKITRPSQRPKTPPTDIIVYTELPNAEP
Experimental: as §1, §2

Binder	binding result
B1	no binding (tested: supernatant 1:5, 1:25, 1:250)
B2	no binding (tested: supernatant 1:5, 1:25, 1:250)
B3	no binding (tested: supernatant 1:5, 1:25, 1:250)
B4	no binding (tested: supernatant 1:5, 1:25, 1:250)

target: T7, KIR2DL4 (UniProt Q99706 22-377, limits assumed); experiment: HEK293 cell microarray
T7 construct: whole, on cells
T7 sequence (Q99706 22-377 limits assumed): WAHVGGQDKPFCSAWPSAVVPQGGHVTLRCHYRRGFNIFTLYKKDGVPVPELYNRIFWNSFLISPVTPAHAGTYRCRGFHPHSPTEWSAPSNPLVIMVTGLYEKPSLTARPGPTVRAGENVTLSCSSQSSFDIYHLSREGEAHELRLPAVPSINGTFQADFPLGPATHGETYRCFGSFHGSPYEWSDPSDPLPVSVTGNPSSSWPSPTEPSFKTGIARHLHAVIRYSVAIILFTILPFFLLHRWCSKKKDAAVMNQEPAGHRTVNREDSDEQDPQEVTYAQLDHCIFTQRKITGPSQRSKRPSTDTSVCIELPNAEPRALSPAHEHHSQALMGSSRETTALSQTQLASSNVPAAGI
Experimental: as §1, §2

Binder	binding result
B1	no binding (tested: supernatant 1:5, 1:25, 1:250)
B2	no binding (tested: supernatant 1:5, 1:25, 1:250)
B3	no binding (tested: supernatant 1:5, 1:25, 1:250)
B4	no binding (tested: supernatant 1:5, 1:25, 1:250)

target: T8, KIR2DL5A (UniProt Q8N109 22-375, limits assumed); experiment: HEK293 cell microarray
T8 construct: whole, on cells
T8 sequence (Q8N109 22-375 limits assumed): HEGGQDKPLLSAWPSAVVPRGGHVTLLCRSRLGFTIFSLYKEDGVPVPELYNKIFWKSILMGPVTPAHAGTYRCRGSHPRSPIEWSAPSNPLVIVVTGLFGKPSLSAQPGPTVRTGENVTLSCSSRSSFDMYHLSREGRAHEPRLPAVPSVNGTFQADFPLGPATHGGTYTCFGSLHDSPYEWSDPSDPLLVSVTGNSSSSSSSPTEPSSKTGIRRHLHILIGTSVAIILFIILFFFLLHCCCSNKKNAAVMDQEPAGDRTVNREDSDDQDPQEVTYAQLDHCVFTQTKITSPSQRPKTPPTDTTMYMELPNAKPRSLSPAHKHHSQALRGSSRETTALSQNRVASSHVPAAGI
Experimental: as §1, §2

Binder	binding result
B4	no binding (tested: supernatant 1:5, 1:25, 1:250)

target: T9, KIR2DL5B (UniProt Q8NHK3 22-375, limits assumed); experiment: HEK293 cell microarray
T9 construct: whole, on cells
T9 sequence (Q8NHK3 22-375 limits assumed): as the sequence (Q8N109 22-375 limits assumed) above, with N152D, G174S counted along it
Experimental: as §1, §2

Binder	binding result
B1	no binding (tested: supernatant 1:5, 1:25, 1:250)
B2	no binding (tested: supernatant 1:5, 1:25, 1:250)
B3	no binding (tested: supernatant 1:5, 1:25, 1:250)
B4	no binding (tested: supernatant 1:5, 1:25, 1:250)

target: T10, KIR2DS1 (UniProt Q14954 22-304, limits assumed); experiment: HEK293 cell microarray
T10 construct: whole, on cells
T10 sequence (Q14954 22-304 limits assumed): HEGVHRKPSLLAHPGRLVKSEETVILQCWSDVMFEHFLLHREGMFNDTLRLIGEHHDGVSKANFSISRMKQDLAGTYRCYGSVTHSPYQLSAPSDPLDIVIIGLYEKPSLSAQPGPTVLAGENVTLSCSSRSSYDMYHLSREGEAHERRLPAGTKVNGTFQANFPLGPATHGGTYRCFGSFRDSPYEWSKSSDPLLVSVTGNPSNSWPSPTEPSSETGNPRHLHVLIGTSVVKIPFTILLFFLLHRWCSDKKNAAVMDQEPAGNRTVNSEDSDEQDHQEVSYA
Experimental: as §1, §2

Binder	binding result
B1	no binding (tested: supernatant 1:5, 1:25, 1:250)
B2	no binding (tested: supernatant 1:5, 1:25, 1:250)
B3	no binding (tested: supernatant 1:5, 1:25, 1:250)
B4	no binding (tested: supernatant 1:5, 1:25, 1:250)

target: T11, KIR2DS2 (UniProt P43631 22-304, limits assumed); experiment: HEK293 cell microarray
T11 construct: whole, on cells
T11 sequence (P43631 22-304 limits assumed): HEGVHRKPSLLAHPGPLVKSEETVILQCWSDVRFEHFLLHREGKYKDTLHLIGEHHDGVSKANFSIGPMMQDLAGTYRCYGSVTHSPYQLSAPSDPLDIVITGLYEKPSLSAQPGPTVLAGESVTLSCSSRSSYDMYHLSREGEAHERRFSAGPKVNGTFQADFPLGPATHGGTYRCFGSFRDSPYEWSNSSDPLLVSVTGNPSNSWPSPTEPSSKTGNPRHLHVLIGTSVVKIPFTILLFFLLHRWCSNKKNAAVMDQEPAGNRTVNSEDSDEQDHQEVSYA
Experimental: as §1, §2

Binder	binding result
B1	no binding (tested: supernatant 1:5, 1:25, 1:250)
B2	no binding (tested: supernatant 1:5, 1:25, 1:250)
B3	no binding (tested: supernatant 1:5, 1:25, 1:250)
B4	no binding (tested: supernatant 1:5, 1:25, 1:250)

target: T12, KIR2DS3 (UniProt Q14952 22-304, limits assumed); experiment: HEK293 cell microarray
T12 construct: whole, on cells
T12 sequence (Q14952 22-304 limits assumed): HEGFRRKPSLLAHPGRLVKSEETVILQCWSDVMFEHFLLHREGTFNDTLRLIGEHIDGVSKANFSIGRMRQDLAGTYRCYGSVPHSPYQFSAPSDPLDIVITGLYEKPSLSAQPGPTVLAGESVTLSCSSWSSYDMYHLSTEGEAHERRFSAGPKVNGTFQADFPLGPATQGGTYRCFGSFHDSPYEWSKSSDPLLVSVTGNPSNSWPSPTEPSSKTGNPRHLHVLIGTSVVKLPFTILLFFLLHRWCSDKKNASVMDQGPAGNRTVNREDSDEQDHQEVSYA
Experimental: as §1, §2

Binder	binding result
B1	no binding (tested: supernatant 1:5, 1:25, 1:250)
B2	no binding (tested: supernatant 1:5, 1:25, 1:250)
B3	no binding (tested: supernatant 1:5, 1:25, 1:250)
B4	no binding (tested: supernatant 1:5, 1:25, 1:250)

target: T13, KIR2DS5 (UniProt Q14953 22-304, limits assumed); experiment: HEK293 cell microarray
T13 construct: whole, on cells
T13 sequence (Q14953 22-304 limits assumed): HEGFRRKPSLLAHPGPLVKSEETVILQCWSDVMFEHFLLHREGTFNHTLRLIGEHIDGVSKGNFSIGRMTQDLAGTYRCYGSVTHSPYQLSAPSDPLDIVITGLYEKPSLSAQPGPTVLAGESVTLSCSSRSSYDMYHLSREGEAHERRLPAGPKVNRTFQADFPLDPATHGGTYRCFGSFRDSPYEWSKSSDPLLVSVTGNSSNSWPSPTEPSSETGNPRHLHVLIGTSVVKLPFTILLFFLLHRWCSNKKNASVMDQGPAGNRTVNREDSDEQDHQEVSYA
Experimental: as §1, §2

Binder	binding result
B1	no binding (tested: supernatant 1:5, 1:25, 1:250)
B2	no binding (tested: supernatant 1:5, 1:25, 1:250)
B3	no binding (tested: supernatant 1:5, 1:25, 1:250)
B4	no binding (tested: supernatant 1:5, 1:25, 1:250)

target: T14, KIR3DS1 (UniProt Q14943 22-382, limits assumed); experiment: HEK293 cell microarray
T14 construct: whole, on cells
T14 sequence (Q14943 22-382 limits assumed): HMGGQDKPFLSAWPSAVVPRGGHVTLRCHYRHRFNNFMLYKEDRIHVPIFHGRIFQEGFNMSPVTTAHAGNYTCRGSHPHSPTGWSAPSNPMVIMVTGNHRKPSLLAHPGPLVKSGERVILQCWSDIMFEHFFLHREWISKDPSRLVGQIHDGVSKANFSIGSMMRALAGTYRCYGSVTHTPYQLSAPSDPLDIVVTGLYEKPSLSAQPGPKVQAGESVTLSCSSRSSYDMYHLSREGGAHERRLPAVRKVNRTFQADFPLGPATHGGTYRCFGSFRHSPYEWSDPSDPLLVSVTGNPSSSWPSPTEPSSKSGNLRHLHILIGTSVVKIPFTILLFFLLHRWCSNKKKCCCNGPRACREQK
Experimental: as §1, §2

Binder	binding result
B1	no binding (tested: supernatant 1:5, 1:25, 1:250)
B2	no binding (tested: supernatant 1:5, 1:25, 1:250)
B3	no binding (tested: supernatant 1:5, 1:25, 1:250)
B4	no binding (tested: supernatant 1:5, 1:25, 1:250)

target: T1, Human KIR3DL3; experiment: flow cytometry, KIR3DL3-transfected 300.19 cells

Binder	Kd
B1	0.46 µg/mL
B2	0.43 µg/mL
B3	0.42 µg/mL
B4	0.77 µg/mL

target: T1, Human KIR3DL3; experiment: flow cytometry, KIR3DL3-transfected 300.19 cells; remark: another data set of the same source

Binder	EC50
B2	0.43 µg/mL

target: T1, Human KIR3DL3; experiment: flow cytometry; blockade of HHLA2-mIgG2a binding to KIR3DL3-transfected cells
Experimental: (§3) The indicated concentrations of KIR3DL3 mAbs were pre-incubated with KIR3DL3 transfected 300.19 cells for 30 minutes at 4° C. […] EC50 and IC50 analysis were conducted using GraphPad Prism®.

Binder	IC50
B2	0.42 µg/mL

target: T15, Human KIR3DL3, Sino Biological Cat#: 16055-H08H (human, UniProt Q8N743 26-322); experiment: BLI (Octet RED96), antibody captured on the sensor, antigen in solution, 1:1 model
T15 construct: Bought soluble antigen; also called KIR3DL3 (Octet antigen)
T15 sequence (Q8N743 other isoform, or with tags, fused parts or gaps H08H H08H limits assumed): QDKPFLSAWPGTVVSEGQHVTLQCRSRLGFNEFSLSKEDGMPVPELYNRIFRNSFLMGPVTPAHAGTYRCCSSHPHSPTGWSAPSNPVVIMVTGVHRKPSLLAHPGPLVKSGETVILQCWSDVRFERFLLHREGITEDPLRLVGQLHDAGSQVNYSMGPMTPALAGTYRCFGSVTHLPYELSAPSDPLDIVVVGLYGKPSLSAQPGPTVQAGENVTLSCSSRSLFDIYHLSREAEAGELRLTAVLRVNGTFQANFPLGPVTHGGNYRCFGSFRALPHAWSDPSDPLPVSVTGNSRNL
Experimental: Binding experiments were performed on Octat Red af 25″° C. The human antibodies were loaded onto Anti-higG Fe Capture biosensors and the mouse antibodies were loaded onto Anti-migG Fe Capture biosensors both for 300 seconds. The ligand loaded sensors were dipped into a 3-fold series dilution (starting at 300 nad) of the antigens (PD-1 and KIR3DL3) for 240 seconds followed by dissociation for 400 seconds. Kinetic constanta were calculated using a monovalent (1:1) binding model Antigen: Haman PD1, Sino Biological Cat #: HPLC-10377-HOSH.

Binder	Kd	koff	kon
B2	0.506 nM	0.000118 s⁻¹	233000 M⁻¹ s⁻¹

target: T1, Human KIR3DL3; experiment: flow cytometry; blockade of HHLA2-mIgG2a binding to KIR3DL3-transfected 300.19 cells
Experimental: as §3

Binder	IC50
B1	0.21 µg/mL
B2	0.16 µg/mL
B3	0.19 µg/mL
B4	0.32 µg/mL
